The results in this text go back to publication PMC12416549 (2024).

Residue numbers refer to the chain shown, from its start. Names may count otherwise.

T1: TNFR1 (Homo sapiens, UniProt P19438)
T1 chain: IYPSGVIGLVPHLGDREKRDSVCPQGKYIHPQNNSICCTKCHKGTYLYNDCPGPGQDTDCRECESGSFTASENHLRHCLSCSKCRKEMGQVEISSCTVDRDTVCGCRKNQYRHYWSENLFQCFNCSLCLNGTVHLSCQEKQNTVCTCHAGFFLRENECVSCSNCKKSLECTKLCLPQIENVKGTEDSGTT

B1: S53C (designed binder)
chain: MTLQELLREEALRRAEAEAFRYALELLAEKFPEQKEYLLDLAEEIESQIRSLCGVDVEDVRKFLDKEWAWVKELLAEHPAELAEVEAARAARLAELRAEVEAKVAA
B2: E29T (designed binder)
chain: B1 chain with E29T, C53S
B3: A17P (designed binder)
chain: B1 chain with A17P, C53S
B4: A94I (designed binder)
chain: B1 chain with C53S, A94I
B5: Y37F (designed binder)
chain: B1 chain with Y37F, C53S
B6: A15K (designed binder)
chain: B1 chain with A15K, C53S
B7: E33Y (designed binder)
chain: B1 chain with E33Y, C53S
B8: Q48I (designed binder)
chain: B1 chain with Q48I, C53S
B9: A90K (designed binder)
chain: B1 chain with C53S, A90K
B10: F63H (designed binder)
chain: B1 chain with C53S, F63H
B11: E81Y (designed binder)
chain: B1 chain with C53S, E81Y
B12: E5M (designed binder)
chain: B1 chain with E5M, C53S
B13: Y22I (designed binder)
chain: B1 chain with Y22I, C53S
B14: H78W (designed binder)
chain: B1 chain with C53S, H78W
B15: E16R (designed binder)
chain: B1 chain with E16R, C53S
B16: L12A (designed binder)
chain: B1 chain with L12A, C53S
B17: E86M (designed binder)
chain: B1 chain with C53S, E86M
B18: E44L (designed binder)
chain: B1 chain with E44L, C53S
B19: K66M (designed binder)
chain: B1 chain with C53S, K66M
B20: A69Y (designed binder)
chain: B1 chain with C53S, A69Y
B21: A69P (designed binder)
chain: B1 chain with C53S, A69P
B22: L3H (designed binder)
chain: B1 chain with L3H, C53S
B23: E95R (designed binder)
chain: B1 chain with C53S, E95R
B24: R89L (designed binder)
chain: B1 chain with C53S, R89L
B25: A87I (designed binder)
chain: B1 chain with C53S, A87I
B26: A87R (designed binder)
chain: B1 chain with C53S, A87R
B27: E58V (designed binder)
chain: B1 chain with C53S, E58V
B28: I45R (designed binder)
chain: B1 chain with I45R, C53S
B29: R14F (designed binder)
chain: B1 chain with R14F, C53S
B30: I45M (designed binder)
chain: B1 chain with I45M, C53S
B31: L82R (designed binder)
chain: B1 chain with C53S, L82R
B32: Q34E (designed binder)
chain: B1 chain with Q34E, C53S
B33: D59H (designed binder)
chain: B1 chain with C53S, D59H
B34: L38G (designed binder)
chain: B1 chain with L38G, C53S
B35: E43P (designed binder)
chain: B1 chain with E43P, C53S
B36: L82D (designed binder)
chain: B1 chain with C53S, L82D
B37: V71L (designed binder)
chain: B1 chain with C53S, V71L
B38: L3S (designed binder)
chain: B1 chain with L3S, C53S
B39: K35Q (designed binder)
chain: B1 chain with K35Q, C53S
B40: D56K (designed binder)
chain: B1 chain with C53S, D56K
B41: L52I (designed binder)
chain: B1 chain with L52I, C53S
B42: L74E (designed binder)
chain: B1 chain with C53S, L74E
B43: A80N (designed binder)
chain: B1 chain with C53S, A80N
B44: G54N (designed binder)
chain: B1 chain with C53S, G54N
B45: E67C (designed binder)
chain: B1 chain with C53S, E67C
B46: R61C (designed binder)
chain: B1 chain with C53S, R61C
B47: E33K (designed binder)
chain: B1 chain with E33K, C53S
B48: A106E (designed binder)
chain: B1 chain with C53S, A106E
B49: A105R (designed binder)
chain: B1 chain with C53S, A105R
B50: S53D (designed binder)
chain: B1 chain with C53D
B51: G54K (designed binder)
chain: B1 chain with C53S, G54K
B52: P79D (designed binder)
chain: B1 chain with C53S, P79D
B53: V55C (designed binder)
chain: B1 chain with C53S, V55C
B54: A88C (designed binder)
chain: B1 chain with C53S, A88C
B55: A83E (designed binder)
chain: B1 chain with C53S, A83E

The target of this test is T1, TNFR1. Description: yeast display SC50.
As to B1, the “apparent Kd (screen)” value turned out to be 24.4 nM.
With B2 the figure was 0.653 nM; with B3, 0.718 nM; with B4, 0.956 nM.
With B5 the figure was 2.48 nM; with B6, 0.49 nM; with B7, 0.539 nM.
The same measure for B8: 5.84 nM.
Take B9: the “apparent Kd (screen)” value is 0.446 nM.
The same measure for B10: 6.43 nM; for B11: 0.446 nM; for B12: 0.593 nM.
The same measure for B13: 0.956 nM; for B14: 0.446 nM.
With B15, the “apparent Kd (screen)” value was 2.05 nM.
As to B16, the “apparent Kd (screen)” value came out at 0.79 nM.
The same measure for B17: 0.79 nM.
As to B18, the “apparent Kd (screen)” value was determined as 13.8 nM.
With B19 the figure was 0.593 nM; with B20, 1.05 nM.
With B21 the figure was 16.7 nM; with B22, 2.25 nM; with B23, 0.593 nM.
The same measure for B24: 0.79 nM; for B25: 0.869 nM; for B26: 0.446 nM.
On to B27, for which the “apparent Kd (screen)” value worked out at 0.49 nM.
The same measure for B28: 11.4 nM; for B29: 0.653 nM; for B30: 12.5 nM.
With B31 the figure was 1.86 nM; with B32, 0.653 nM; with B33, 0.869 nM.
With B34 the figure was 24.4 nM; with B35, 1.16 nM.
B36: the “apparent Kd (screen)” value came out at 5.84 nM.
With B37 the figure was 0.593 nM; with B38, 15.2 nM.
With B39 the figure was 0.718 nM.
B40: the “apparent Kd (screen)” value is 2.25 nM.
For B41, the “apparent Kd (screen)” value amounted to 0.539 nM.
Take B42: the “apparent Kd (screen)” value was found to be 2.48 nM.
The same measure for B43: 1.27 nM.
With B44 the figure was 1.4 nM; with B45, 5.84 nM; with B46, 0.956 nM.
The same measure for B47: 1.05 nM; for B48: 0.79 nM.
For B49, the “apparent Kd (screen)” value is 0.718 nM.
With B50, the “apparent Kd (screen)” value came to 8.56 nM.
With B51 the figure was 12.5 nM; with B52, 0.539 nM.
With B53, the “apparent Kd (screen)” value came out at 0.79 nM.
For B54, the “apparent Kd (screen)” value was determined as 0.653 nM.
With B55 the figure was 0.593 nM.
